B1: mNb‐WT [not stated] / recombinant VEGF‐A165 protein [not stated] (parent complex)
chain 1: MDVQLVESGGGLVQPGGSLRLSCAASGRTFSSYSMGWFRQAPGKEREFVVAISKGGYKYDAVSLEGRFTISRDNAKNTVYLQINSLRPEDTAVYYCASSRAYGSSRLRLADTYEYWGQGTLVTVSS
chain 2: APMAEGGGQNHHEVVKFMDVYQRSYCHPIETLVDIFQEYPDEIEYIFKPSCVPLMRCGGCCNDEGLECVPTEESNITMQIMRIKPHQGQHIGEMSFLQHNKCECRPKKDRARQENPCGPCSERRKHLFVQDPQTCKCSCKNTDSRCKARQLELNERTCRCDKPRR

Variants of: B1
Test: ELISA; parent: 0.73 nM
With chain 1 MDVQLVESGGGLVQPGGSLRLSCAASGRTFSSYSMGWFRQAPGAEREFVVAISKGGYKYDAVSLEGRFTISRDNAKNTVYLQINSLRPEDTAVYYCASSRAYGSSRLRLADTYEYWGQGTLVTVSS [chain 1 K44A] the EC50 was 0.62 nM.
Variant chain 1 MDVQLVESGGGLVQPGGSLRLSCAASGRTFSSYSMGWFRQAPGAAREFVVAISKGGYKYDAVSLEGRFTISRDNAKNTVYLQINSLRPEDTAVYYCASSRAYGSSRLRLADTYEYWGQGTLVTVSS [chain 1 K44A, chain 1 E45A] has an EC50 of 0.91 nM.
In the case of chain 1 MDVQLVEAGGGLVQPGGSLRLSCAASGRTFSSYSMGWFRQAPGKEREFVVAISKGGYKYDAVSLEGRFTISRDNAKNTVYLQINSLRPEDTAVYYCASSRAYGSSRLRLADTYEYWGQGTLVTVSS [chain 1 S8A], the EC50 is reported as 0.82 nM.
chain 1 MDVQLVESGGGLVQPGGSLRLSCAASGRTFSSYSMGWFRQAPGKEREFVVAISKGGYKYDAVSLEGRFTISRDNAKNTVYLQINSLRPEDTAVYFCASSRAYGSSRLRLADTYEYWGQGTLVTVSS [chain 1 Y95F] showed an EC50 of 0.8 nM.
chain 1 MDVQLVESGGGLVNPGGSLRLSCAASGRTFSSYSMGWFRQAPGKEREFVVAISKGGYKYDAVSLEGRFTISRDNAKNTVYLQINSLRPEDTAVYYCASSRAYGSSRLRLADTYEYWGQGTLVTVSS [chain 1 Q14N] showed an EC50 of 0.77 nM.
chain 1 MDVQLVESGGGLVQPGGSLRLSCAASGRTFSSYSMGWFRQAPGKEREFVVAISKGGYKYDAVSLEGRFTISRDNAKNTVYLQINSLRPEDTAVYYCASSRAYGSSRLRLADTYEYWGNGTLVTVSS [chain 1 Q118N] showed an EC50 of 0.77 nM.
chain 1 MDVQLVESGGGLVQPGGSLRLSCAASGRTFSSYSMGWFRQAPGKAREFVVAISKGGYKYDAVSLEGRFTISRDNAKNTVYLQINSLRPEDTAVYYCASSRAYGSSRLRLADTYEYWGQGTLVTVSS [chain 1 E45A] was tested, and the EC50 was 0.79 nM.
